According to article PMC10715212:

Biological target: Strep-tag II-tagged VgrG spike protein of EAEC T6SS-1 (enteroaggregative Escherichia coli (EAEC) 17-2)
Assay: cryo-EM structure; single particle cryo-EM of the co-produced, double-affinity and SEC purified PAAR^FL-^SVgrG-Tle1^H complex; AlphaFold2 model plus PDB 6SJL docked into the maps

Substance “Strep-tag II-tagged VgrG spike protein of EAEC T6SS-1 (natural protein)” has a stoichiometry N of 3.
